# Test results from PMC10392983 (2023).
# B1: Nanobody NB7-PIK3CG (VHH)
# VHH: QVQLVESGGGLVQPGGSLRLSCAASGSIFSINAMGWYRQAPGKQRELVAHITSGGSTNYADSVKGRFTISRDNAKNTVYLQMNSLKPEDTAVYYCNEAGDPFLGSTWNGPPAFGSWGQGTQVTVSS
# Legend:
# p110γ-p101 complex = p110γ-p101 complex (human | Sus scrofa (porcine), UniProt P48736 1-1102; O02696 1-877); assay: BLI
# p110γ-p84 complex = p110γ-p84 complex (human | mouse, UniProt P48736 1-1102; Q3U6Q4 1-756); assay: BLI
# Sequence of p110γ-p84 complex (P48736 whole entry, chain 1 of 2): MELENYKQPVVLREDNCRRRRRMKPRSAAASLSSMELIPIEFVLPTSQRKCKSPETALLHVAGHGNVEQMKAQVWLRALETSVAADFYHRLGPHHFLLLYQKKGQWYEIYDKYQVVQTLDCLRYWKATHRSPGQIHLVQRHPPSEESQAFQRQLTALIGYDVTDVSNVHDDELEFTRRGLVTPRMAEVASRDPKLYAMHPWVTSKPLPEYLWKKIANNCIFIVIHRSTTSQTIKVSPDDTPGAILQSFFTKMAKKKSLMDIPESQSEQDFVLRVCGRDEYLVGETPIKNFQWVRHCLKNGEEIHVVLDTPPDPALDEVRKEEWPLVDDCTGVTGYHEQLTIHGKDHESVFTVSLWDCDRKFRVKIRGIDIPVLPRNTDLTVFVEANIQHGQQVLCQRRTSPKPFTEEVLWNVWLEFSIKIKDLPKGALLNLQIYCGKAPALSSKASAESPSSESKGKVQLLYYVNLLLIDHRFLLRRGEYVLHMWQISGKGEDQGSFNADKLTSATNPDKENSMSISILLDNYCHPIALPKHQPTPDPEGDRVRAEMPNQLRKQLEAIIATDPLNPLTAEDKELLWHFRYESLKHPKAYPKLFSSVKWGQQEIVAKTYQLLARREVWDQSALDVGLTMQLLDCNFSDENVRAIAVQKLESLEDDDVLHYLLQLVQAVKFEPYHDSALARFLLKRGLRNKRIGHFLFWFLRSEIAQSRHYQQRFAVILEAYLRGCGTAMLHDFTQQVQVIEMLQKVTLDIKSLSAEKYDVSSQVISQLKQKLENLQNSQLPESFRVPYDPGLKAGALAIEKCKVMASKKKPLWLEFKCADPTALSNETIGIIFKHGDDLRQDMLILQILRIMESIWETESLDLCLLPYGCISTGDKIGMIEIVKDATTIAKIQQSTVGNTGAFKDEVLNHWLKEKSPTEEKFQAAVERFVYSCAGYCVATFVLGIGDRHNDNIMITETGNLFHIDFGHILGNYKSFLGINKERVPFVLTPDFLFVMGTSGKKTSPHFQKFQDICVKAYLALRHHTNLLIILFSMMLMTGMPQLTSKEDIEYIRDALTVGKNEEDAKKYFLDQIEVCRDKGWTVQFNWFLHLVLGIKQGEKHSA
# Sequence of p110γ-p84 complex (Q3U6Q4 whole entry, chain 2 of 2): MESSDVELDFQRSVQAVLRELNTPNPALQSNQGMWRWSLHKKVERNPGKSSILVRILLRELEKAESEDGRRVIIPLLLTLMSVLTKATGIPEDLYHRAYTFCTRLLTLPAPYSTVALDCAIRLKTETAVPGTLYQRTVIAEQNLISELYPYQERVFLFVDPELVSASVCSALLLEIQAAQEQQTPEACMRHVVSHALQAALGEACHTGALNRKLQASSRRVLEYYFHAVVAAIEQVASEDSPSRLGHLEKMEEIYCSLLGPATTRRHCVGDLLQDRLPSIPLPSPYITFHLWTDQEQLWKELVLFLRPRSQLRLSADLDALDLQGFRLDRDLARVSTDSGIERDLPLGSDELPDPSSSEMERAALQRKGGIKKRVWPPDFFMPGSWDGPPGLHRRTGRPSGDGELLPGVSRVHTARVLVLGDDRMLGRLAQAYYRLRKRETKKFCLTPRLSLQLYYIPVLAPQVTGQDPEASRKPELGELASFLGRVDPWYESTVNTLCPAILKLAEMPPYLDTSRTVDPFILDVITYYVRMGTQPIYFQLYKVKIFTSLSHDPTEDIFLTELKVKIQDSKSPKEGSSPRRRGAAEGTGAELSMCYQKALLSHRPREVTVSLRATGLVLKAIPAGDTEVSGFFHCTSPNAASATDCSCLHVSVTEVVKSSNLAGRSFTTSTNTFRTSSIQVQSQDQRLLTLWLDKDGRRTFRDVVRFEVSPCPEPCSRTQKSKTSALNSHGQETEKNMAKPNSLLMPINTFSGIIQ
# Sequence of p110γ-p101 complex (P48736 whole entry, chain 1 of 2): as the sequence (P48736 whole entry, chain 1 of 2) above
# Sequence of p110γ-p101 complex (O02696 whole entry, chain 2 of 2): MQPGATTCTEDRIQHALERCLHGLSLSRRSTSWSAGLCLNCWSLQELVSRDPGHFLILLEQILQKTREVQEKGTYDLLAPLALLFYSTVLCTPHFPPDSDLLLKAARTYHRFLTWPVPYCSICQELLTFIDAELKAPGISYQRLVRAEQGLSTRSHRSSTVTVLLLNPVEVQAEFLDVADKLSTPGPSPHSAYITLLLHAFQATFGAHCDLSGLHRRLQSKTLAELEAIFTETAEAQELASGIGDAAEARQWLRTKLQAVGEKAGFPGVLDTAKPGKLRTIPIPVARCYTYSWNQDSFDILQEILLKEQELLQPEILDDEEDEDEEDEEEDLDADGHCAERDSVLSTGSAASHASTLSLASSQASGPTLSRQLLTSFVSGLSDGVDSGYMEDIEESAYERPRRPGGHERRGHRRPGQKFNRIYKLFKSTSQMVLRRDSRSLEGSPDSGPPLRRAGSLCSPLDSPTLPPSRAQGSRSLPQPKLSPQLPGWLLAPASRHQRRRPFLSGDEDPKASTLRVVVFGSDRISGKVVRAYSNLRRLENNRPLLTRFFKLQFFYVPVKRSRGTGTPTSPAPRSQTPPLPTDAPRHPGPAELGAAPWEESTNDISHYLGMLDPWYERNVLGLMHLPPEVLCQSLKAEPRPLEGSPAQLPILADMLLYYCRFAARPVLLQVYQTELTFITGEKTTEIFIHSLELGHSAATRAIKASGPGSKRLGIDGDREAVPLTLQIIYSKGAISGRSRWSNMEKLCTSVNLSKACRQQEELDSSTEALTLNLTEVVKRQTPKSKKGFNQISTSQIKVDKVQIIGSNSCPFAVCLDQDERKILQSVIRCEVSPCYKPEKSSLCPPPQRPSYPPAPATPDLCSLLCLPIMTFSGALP
binder,measurement,setting,value
B1,Kd,p110γ-p101 complex,3.1 nM
same,Kd,p110γ-p84 complex,3 nM
